assay: soluble on expression in E. coli; label from the status in PepcDB or PDB records

Row | Sequence | soluble on expression in E. coli
1 | MGRQAFEFGLRPKDQFKVMQHFDLNTNHLEVLNRLYTPLIGTQAVGLYHFMTQFVKDSHNETLILSHYIFMNELKINLLEFRQQMDLLEAIGLLKAFVKHDEQETQFVYQLIQPPSAHLFFNDPMLSIFLYSEVEHRRFHELKKYFEYQQIDLSEFKQVTRQFTDVFKVPSTKIDIDTSDIPINEPYQGIDLSNESFDFEMLRQMLGKHFISQDIVTKDAKRLITQLATLYGLTADGMKHVILNSITSGQQLSFEEMRKQARSYYLMEHENQMPKLQVKSPATSSSTGKSSEVNPKPQSDEWFELLEQTSPIDMLASWSESEPTISQKTMVEELIEREKMSFGVINILLQFVMLKEDMKLPKAYILEIASNWKKKGIKTAKEAYNYAKKVNQPKNEGSSGNYQKRGSYYGQRNRISKEKTPKWLENRDKPSEEDSAKDNSVDDQQLEQDRQAFLDKLSKKWEEDSR | not soluble
2 | MSPAQIIRTSHSFPPSFTGTSSSAENSHAQSPQQVLTRAFVASGELNAAFGRTSTASAQDFTSLLGTLQRELEKKTPAFPDLAELANQLADAAMGDQGGHWLGRDEQQTLKGMIDRCKSQLAHTPASDASYDLLAQVCENLKKARLHQSISQMTGEAHAKVRGVPDLLALIQLDPDILAEKPVGMPSYVKFSSFICMAKARTAELSENLRNASNEVALLLHPHADTILEQGSLRLQIVGF | not soluble
3 | MIILYDFLQESSVMPRSKNDSKLKKKSALQSKFKEQQLNHGSKEHKSKFKFSQRKAKKKGPGMTHLPGNIYTLFTPVNGPKSKDEWIDTSKIMLDLHIDNMSSSDYIPSAIDRTDLVMVQSVHLLRKTGGRGLFAREDIPKGTCIGIYTGEVYSEQEFEQYLKEHVGSDKSYAMYVGGRVIDAARKGNLTRYINFSDSQDNAEFVETTLNRKKVAKVITTKNIKAGQQLLINYNTYEEQASRYYYFLNPGDGWLSAQEFYQTYQSQYRLEQMPYNLEGFDLKAGDRVLMTQIGRIILANYSLAKEQELNASDIDLPFLKVGSDEKILDFDEADTFTPLMAACYLGQVENVKWLIEHGANIDQQQSHSGHCPLSLTLKGYSLAKDTQKYIDIIQLLIKNQVNLLVHDRSDKTFLHNAALVLNNLDFQSVVKFLIGQNPIDINEYFTYIDENDFDIVMHCYNNKLFDKALVLLAFYPDYFKRNYMSDNEGHNQFNINAFRKAIKDFNSNERSILLMQLRESGLHLPEDLLEQLGIMDSSITLESKFF | not soluble
4 | MGSDKIHHHHHHMDLRDLTYFETIAELGHLGRAAEKLNRSQPALTKSIQRLEESFGTRLFQRDGRRIKLTPVGELLQARGKELQQSIAQTQREVRDFASGMVGNIRVGCAATMAEYLMPKLTSALLQRTPDVTFKLVIGQDDLLRESLRSGQLDMIICALAPDSDDVTSFAVLKDEAVVIASKHHPIFKTPLQMSDLCAYRWVLPPVSVSSRKWLDTTFAAHGLPLPTVQIEANSISLLPGLIAQSNLLSFVARESLEFGKTMQHLREVPLEQTTLKRTIGVTLRKGGYLSPAAEGMLQMLRDNGGDFLGWG | not soluble
5 | MGSEKMIEICIDMEEGEPLGATPNDKLVITKIQAGTISEGKLRIGDQVKKVNGQNCKDCNDFFRALRFAAPCAKITVNRDEKKAEELEARVHIPEDRAKIIQRREGYVYELATLVWVQNGPKLGLGIKHFQNRVLVSRVDPGSLAEKCLVLGDHLCDVDGIPVSDKDVARDLLVKNIQEKGKVTFVVERPDSIDAKQWAKQALATNLMQPPSVQMNEDVKGIASQYRQALPGLKPPAKSAMSTGPNARRVSIIEQTQTHEIGHDHEGKALRKVK | soluble
6 | MAHHHHHHMHAYSGRMEHRKMVEVKDVPQNMYTYGKEGMSIPISIFKDQADPVIGPEWTYPGIFENKIVAQHWYMEELFDREKSNTFESPWQRQVLDNQVKRRLGKVAWRMSMLNIKTIDIFHKERGASKRPGAGDTKAPATPAGKK | not soluble
7 | MSLQFEGDTITYVGTGRPASDEIIDATGKVVMPGFINTHAHVGMSASKGLFDDVDLERFLDMTFKYDSQRTEEGIFNSARLGMYEMINSGITSFVDLYYSENVIARAAEQVGIRAFLSWVTLDREFTTQKGDPLDNAENFIRSHQNMRFVKPSVGVQGIYVASDETYQRAKEIAERYDTIMHMHLSETRKEVYDSVKKIGERPIEHLDKIGVLSSRVIAAHCVWATYHEAKLLGKNGVNVSWNAVSNFKLATGGVPPVPEMLDAGVNITIGTDSNGSNNSLNFFEAMKFSALTVKNARWDASIIKSQQILDFATIDAAKALRLNAGSIEVGKKADIVILDARRPELIPTDKNNVVNNIVYSTNPASVDSVIIDGVFRKKGGRLIGFDEGGVASANVFVEGHHHHHH | not soluble

From the DeepSol protein solubility set
